From patent US20240294569A1, “MODULATORS OF SORTILIN ACTIVITY” (Insusense ApS, priority 2021, published 2024)
Peptide text beside a SMILES is read from it.

Assays:
6his-Sortilin (human) = 6his-Sortilin (human) (UniProt Q99523); test: SPA, displacement of [3H]-neurotensin from 6his-Sortilin
hSortilin = molecular target: T1, hSortilin (Homo sapiens, UniProt Q99523); test: Neurotensin scintillation proximity assay (displacement of [3H]-neurotensin binding); settings: displacement of 5 nM [3H]-neurotensin from 150 nM 6his-Sortilin; average of at least 2 determinations; read-out: IC50 [3H]Neurotensin SPA
T1 sequence (Q99523 78-831): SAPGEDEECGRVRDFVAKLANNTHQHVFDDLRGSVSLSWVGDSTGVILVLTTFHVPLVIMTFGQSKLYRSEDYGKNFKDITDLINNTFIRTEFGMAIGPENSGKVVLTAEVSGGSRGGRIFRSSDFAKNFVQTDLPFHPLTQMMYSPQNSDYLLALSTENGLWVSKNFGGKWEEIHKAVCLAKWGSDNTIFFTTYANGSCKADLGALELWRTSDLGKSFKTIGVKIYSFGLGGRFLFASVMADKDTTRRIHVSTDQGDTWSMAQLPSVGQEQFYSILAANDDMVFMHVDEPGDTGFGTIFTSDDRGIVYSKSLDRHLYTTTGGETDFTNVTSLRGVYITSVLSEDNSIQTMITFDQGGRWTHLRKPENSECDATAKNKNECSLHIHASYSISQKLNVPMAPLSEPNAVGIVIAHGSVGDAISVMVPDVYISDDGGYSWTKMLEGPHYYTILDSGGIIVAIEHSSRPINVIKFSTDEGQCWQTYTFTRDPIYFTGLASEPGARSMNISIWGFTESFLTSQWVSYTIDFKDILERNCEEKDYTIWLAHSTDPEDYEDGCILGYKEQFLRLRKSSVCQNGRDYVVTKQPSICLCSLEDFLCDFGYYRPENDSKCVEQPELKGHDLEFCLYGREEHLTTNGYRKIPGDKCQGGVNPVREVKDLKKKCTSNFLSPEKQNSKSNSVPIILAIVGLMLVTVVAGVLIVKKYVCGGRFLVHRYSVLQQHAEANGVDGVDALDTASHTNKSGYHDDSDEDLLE
Method: The data of exemplified compounds of the invention tested in a Neurotensin (NTS) scintillation proximity assay (SPA). NTS, which is a 13 amino acid neuropeptide, is a sortilin ligand. The IC50 is a measure of the amount of the compound required to inhibit the binding of NTS to sortilin by 50%.
Compound affinity was determined by measuring the displacement of [^3H]-neurotensin binding to hSortilin in SPA format. Total volume of 40 μl in 50 mM HEPES pH 7.4 assay buffer containing 100 mM NaCl, 2.0 mM CaCl2, 0.1% BSA and 0.1% Tween-20. Compound pre-incubation for 30 minutes at room temperature with 150 nM of 6his-Sortilin before 5 nM [3H]-Neurotensin and Ni chelate imaging beads (Perkin Elmer) were added, after 6 hours the plate was read on a ViewLux with 360 s exposure time. Dose-response evaluation of compounds was performed with 8 concentrations of drugs (covering 3 decades). IC50 values were calculated by nonlinear regression using the sigmoid concentration-response (variable slope) using CDD Vault software. All values reported are average of at least 2 determinations.

| Compound | IC50 (6his-Sortilin (human)) [nM] | IC50 (hSortilin) [nM] |
| --- | --- | --- |
| (S)-2-((2S,3S)-2-((S)-3-(4-Hydroxyphenyl)-2-((R)-pyrrolidine-3-carboxamido)propanamido)-3-methylpentanamido)-5,5-dimethylhexanoic acid (peptide) | 180 | – |
| (S)-2-((2S,3S)-2-((S)-3-(4-Hydroxyphenyl)-2-((R)-morpholine-2-carboxamido)propanamido)-3-methylpentanamido)-5,5-dimethylhexanoic acid (peptide) | 90 | – |
| (2S)-5,5-Dimethyl-2-((3S)-3-methyl-2-((S)-2-((S)-pyrrolidine-2-carboxamido)propanamido)pentanamido)hexanoic acid (peptide) | 70 | – |
| (S)-2-((2S,3S)-2-((S)-3-(4-Hydroxyphenyl)-2-((R)-morpholine-3-carboxamido)propanamido)-3-methylpentanamido)-5,5-dimethylhexanoic acid (peptide) | 100 | – |
| (S)-2-((S)-2-((S)-3-(4-Hydroxyphenyl)-2-((S)-pyrrolidine-2-carboxamido)propanamido)-3-(1H-indol-3-yl)propanamido)-5,5-dimethylhexanoic acid (peptide) | 60 | – |
| (S)-2-((S)-2-((S)-3-(4-Hydroxyphenyl)-2-((S)-pyrrolidine-2-carboxamido)propanamido)-3-(thiophen-3-yl)propanamido)-5,5-dimethylhexanoic acid (peptide) | 140 | – |
| (S)-2-((S)-2-((S)-3-(4-Hydroxyphenyl)-2-((S)-pyrrolidine-2-carboxamido)propanamido)-3-(thiazol-4-yl)propanamido)-5,5-dimethylhexanoic acid (peptide) | 70 | – |
| (S)-2-((2S,3S)-2-((S)-3-(4-Hydroxyphenyl)-2-((S)-morpholine-2-carboxamido)propanamido)-3-methylpentanamido)-5,5-dimethylhexanoic acid (peptide) | 70 | – |
| (S)-2-((S)-2-((S)-3-(4-Hydroxyphenyl)-2-((S)-pyrrolidine-2-carboxamido)propanamido)-3-(1-methyl-1H-imidazol-5-yl)propanamido)-5,5-dimethylhexanoic acid.di-formic acid (peptide) | 100 | – |
| (S)-2-((S)-2-((S)-3-(4-Hydroxyphenyl)-2-((S)-pyrrolidine-2-carboxamido)propanamido)-3-(1-methyl-1H-imidazol-4-yl)propanamido)-5,5-dimethylhexanoic acid (peptide) | 370 | – |
| (S)-2-((S)-2-((S)-5-Amino-5-oxo-2-((S)-pyrrolidine-2-carboxamido)pentanamido)-3-(thiazol-4-yl)propanamido)-5,5-dimethylhexanoic acid (peptide) | 60 | – |
| (S)-2-((S)-2-((S)-4-Amino-4-oxo-2-((S)-pyrrolidine-2-carboxamido)butanamido)-3-(thiazol-4-yl)propanamido)-5,5-dimethylhexanoic acid (peptide) | 90 | – |
| CC(C)(C)CC[C@H](NC(=O)[C@H](Cc1ccsc1)NC(=O)[C@H](Cc1ccc(O)cc1)NC(=O)[C@@H]1CCCN1)C(=O)O [Example 9, (S)-2-((S)-2-((S)-3-(4-Hydroxyphenyl)-2-((S)-pyrrolidine-2-carboxamido)propan amido)-3-(thiophen-3-yl)propanamido)-5,5-dimethylhexanoic acid] (HELM PEPTIDE1{P.Y.[O=C([C@H](Cc1ccsc1)N[*:1])[*:2]].[CC(C)(C)CC[C@H](N[*:1])C(=O)O]}$$$$V2.0) | – | 140 |
| Cn1cnc(C[C@H](NC(=O)[C@H](Cc2ccc(O)cc2)NC(=O)[C@@H]2CCCN2)C(=O)N[C@@H](CCC(C)(C)C)C(=O)O)c1 [Example 7, (S)-2-((S)-2-((S)-3-(4-Hydroxyphenyl)-2-((S)-pyrrolidine-2-carboxamido)propan amido)-3-(1-methyl-1H-imidazol-4-yl)propanamido)-5,5-dimethylhexanoic acid] (HELM PEPTIDE1{P.Y.[Cn1cnc(C[C@H](N[*:1])C(=O)[*:2])c1].[CC(C)(C)CC[C@H](N[*:1])C(=O)O]}$$$$V2.0) | – | 370 |
| CC[C@H](C)[C@H](NC(=O)CNC(=O)[C@@H]1CCCN1)C(=O)N[C@@H](CCC(C)(C)C)C(=O)O [Example 16, (2S)-5,5-Dimethyl-2-((3S)-3-methyl-2-(2-((S)-pyrrolidine-2-carboxamido)acetamido)pentanamido) hexanoic acid] (HELM PEPTIDE1{P.G.I.[CC(C)(C)CC[C@H](N[*:1])C(=O)O]}$$$$V2.0) | – | 80 |
| CC[C@H](C)[C@H](NC(=O)[C@H](Cc1ccc(O)cc1)NC(=O)[C@H]1CN(C(C)=O)CCO1)C(=O)N[C@@H](CCC(C)(C)C)C(=O)O [Example 25, (S)-2-((2S,3S)-2-((S)-2-((R)-4-Acetylmorpholine-2-carboxamido)-3-(4-hydroxyphenyl)propanamido)-3-methylpentanamido)-5,5-dimethylhexanoic acid] | – | 140 |
| (S)-2-((2S,3S)-2-((S)-3-(4-Hydroxyphenyl)-2-((S)-piperazine-2-carboxamido)propanamido)-3-methylpentanamido)-5,5-dimethylhexanoic acid (peptide) | 100 | – |
| CC[C@H](C)[C@H](NC(=O)[C@H](Cc1ccc(O)cc1)NC(=O)[C@H]1CN(C(C)=O)CCO1)C(=O)N[C@@H](CCC(F)(F)F)C(=O)O [Example 4, (S)-2-((2S,3S)-2-((S)-2-((R)-4-Acetylmorpholine-2-carboxamido)-3-(4-hydroxyphenyl)propanamido)-3-methylpentanamido)-5,5,5-trifluoropentanoic acid] | – | 1690 |
| (S)-2-((2S,3S)-2-((S)-3-(4-Hydroxyphenyl)-2-((S)-pyrrolidine-3-carboxamido)propanamido)-3-methylpentanamido)-5,5-dimethylhexanoic acid (peptide) | 150 | – |
| (S)-2-((S)-2-((S)-3-(4-Hydroxyphenyl)-2-((S)-pyrrolidine-2-carboxamido)propanamido)-3-(pyridin-4-yl)propanamido)-5,5-dimethylhexanoic acid (peptide) | 200 | – |
| CC[C@H](C)[C@H](NC(=O)[C@H](Cc1ccc(O)cc1)NC(=O)[C@@H]1CCNC1)C(=O)N[C@@H](CCC(C)(C)C)C(=O)O [Example 21, (S)-2-((2S,3S)-2-((S)-3-(4-Hydroxyphenyl)-2-((R)-pyrrolidine-3-carboxamido)propan amido)-3-methylpentanamido)-5,5-dimethylhexanoic acid] | – | 180 |
| (S)-2-((S)-2-((S)-3-(4-Hydroxyphenyl)-2-((S)-pyrrolidine-2-carboxamido)propanamido)-3-(pyridin-3-yl)propanamido)-5,5-dimethylhexanoic acid (peptide) | 90 | – |
| (S)-2-((S)-2-((S)-3-(4-Hydroxyphenyl)-2-((S)-pyrrolidine-2-carboxamido)propanamido)-3-morpholinopropanamido)-5,5-dimethylhexanoic acid (peptide) | 160 | – |
| CC[C@H](C)[C@H](NC(=O)[C@H](Cc1ccc(O)cc1)NC(=O)[C@H]1CCNC1)C(=O)N[C@@H](CCC(C)(C)C)C(=O)O [Example 20, (S)-2-((2S,3S)-2-((S)-3-(4-Hydroxyphenyl)-2-((S)-pyrrolidine-3-carboxamido)propan amido)-3-methylpentanamido)-5,5-dimethylhexanoic acid] | – | 150 |
| CC(C)(C)CC[C@H](NC(=O)[C@H](CN1CCOCC1)NC(=O)[C@H](Cc1ccc(O)cc1)NC(=O)[C@@H]1CCCN1)C(=O)O [Example 13, (S)-2-((S)-2-((S)-3-(4-Hydroxyphenyl)-2-((S)-pyrrolidine-2-carboxamido)propan amido)-3-morpholinopropan-amido)-5,5-dimethylhexanoic acid] (HELM PEPTIDE1{P.Y.[O=C([C@H](CN1CCOCC1)N[*:1])[*:2]].[CC(C)(C)CC[C@H](N[*:1])C(=O)O]}$$$$V2.0) | – | 160 |
| (S)-2-((2S,3S)-2-((S)-3-(4-Hydroxyphenyl)-2-((S)-pyrrolidine-2-carboxamido)propanamido)-3-methylpentanamido)-5,5-dimethylhexanoic acid (peptide) | 90 | – |
| (S)-2-((2S,3S)-2-((S)-3-(4-Hydroxyphenyl)-2-((R)-piperazine-2-carboxamido)propanamido)-3-methylpentanamido)-5,5-dimethylhexanoic acid (peptide) | 110 | – |
